The assay deals with human corticotropin-releasing factor 2α (CRF2 α receptor) (human), Q13324. The assay is described as follows: cell-based or functional assay.

Starred links: 1 amine or outer side, 2 acyl side, 3 side chain; linkers in the order of their positions; H or OH if unused. Non-standard residues stand in square brackets, D forms with d. Groups on a side chain read outwards from the residue. No end group written: not given here. *: point of attachment. C18 diacid = O=C(O)CCCCCCCCCCCCCCCCC(=O)*; γGlu = O=C(O)[C@H](CCC(=O)[*:2])N[*:1]; Palmitoyl = CCCCCCCCCCCCCCCC(=O)*; AEEA = NCCOCCOCC(=O)O; Aib = CC(C)(N)C(=O)O

Sequence of human corticotropin-releasing factor 2α (CRF2 α receptor) (human), Q13324 (Q13324 20-411): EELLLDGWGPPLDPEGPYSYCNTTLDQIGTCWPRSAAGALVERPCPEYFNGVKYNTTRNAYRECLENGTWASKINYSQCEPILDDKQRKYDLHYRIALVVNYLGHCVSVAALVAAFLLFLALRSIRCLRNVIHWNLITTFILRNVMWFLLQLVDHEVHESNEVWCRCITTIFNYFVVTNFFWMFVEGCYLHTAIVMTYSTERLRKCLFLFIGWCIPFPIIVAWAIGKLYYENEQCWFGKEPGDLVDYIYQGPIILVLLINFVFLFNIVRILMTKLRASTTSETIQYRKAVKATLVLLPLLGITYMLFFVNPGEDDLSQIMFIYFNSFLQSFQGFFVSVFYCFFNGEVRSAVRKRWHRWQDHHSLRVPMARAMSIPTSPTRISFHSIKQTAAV

B1: SEQ ID NO: 136 (peptide)
peptide: IVLSLD[dV]PIKLK([AEEA-AEEA-γGlu-C18 diacid])QILLKQERQKK[Aib]RQKAEKNKQILAQV-NH2
modifications: N-terminus assumed
SMILES: CC[C@H](C)[C@H](N)C(=O)N[C@H](C(=O)N[C@@H](CC(C)C)C(=O)N[C@@H](CO)C(=O)N[C@@H](CC(C)C)C(=O)N[C@@H](CC(=O)O)C(=O)N[C@@H](C(=O)N1CCC[C@H]1C(=O)N[C@H](C(=O)N[C@@H](CCCCN)C(=O)N[C@@H](CC(C)C)C(=O)N[C@@H](CCCCNC(=O)COCCOCCNC(=O)COCCOCCNC(=O)CC[C@H](NC(=O)CCCCCCCCCCCCCCCCC(=O)O)C(=O)O)C(=O)N[C@@H](CCC(N)=O)C(=O)N[C@H](C(=O)N[C@@H](CC(C)C)C(=O)N[C@@H](CC(C)C)C(=O)N[C@@H](CCCCN)C(=O)N[C@@H](CCC(N)=O)C(=O)N[C@@H](CCC(=O)O)C(=O)N[C@@H](CCCNC(=N)N)C(=O)N[C@@H](CCC(N)=O)C(=O)N[C@@H](CCCCN)C(=O)N[C@@H](CCCCN)C(=O)NC(C)(C)C(=O)N[C@@H](CCCNC(=N)N)C(=O)N[C@@H](CCC(N)=O)C(=O)N[C@@H](CCCCN)C(=O)N[C@@H](C)C(=O)N[C@@H](CCC(=O)O)C(=O)N[C@@H](CCCCN)C(=O)N[C@@H](CC(N)=O)C(=O)N[C@@H](CCCCN)C(=O)N[C@@H](CCC(N)=O)C(=O)N[C@H](C(=O)N[C@@H](CC(C)C)C(=O)N[C@@H](C)C(=O)N[C@@H](CCC(N)=O)C(=O)N[C@H](C(N)=O)C(C)C)[C@@H](C)CC)[C@@H](C)CC)[C@@H](C)CC)C(C)C)C(C)C
As for B1, the EC50 [nM], 0% HSA was determined as 0.05 nM and the EC50 [nM], 0.1% HSA was 2.41 nM.

B2: SEQ ID NO: 139 (peptide)
peptide: IVLSLD[dV]PIKLK([AEEA-AEEA-γGlu-C18 diacid])QILLKQERQKKQRQQAEKNKQILAQV-NH2
modifications: N-terminus assumed
SMILES: CC[C@H](C)[C@H](N)C(=O)N[C@H](C(=O)N[C@@H](CC(C)C)C(=O)N[C@@H](CO)C(=O)N[C@@H](CC(C)C)C(=O)N[C@@H](CC(=O)O)C(=O)N[C@@H](C(=O)N1CCC[C@H]1C(=O)N[C@H](C(=O)N[C@@H](CCCCN)C(=O)N[C@@H](CC(C)C)C(=O)N[C@@H](CCCCNC(=O)COCCOCCNC(=O)COCCOCCNC(=O)CC[C@H](NC(=O)CCCCCCCCCCCCCCCCC(=O)O)C(=O)O)C(=O)N[C@@H](CCC(N)=O)C(=O)N[C@H](C(=O)N[C@@H](CC(C)C)C(=O)N[C@@H](CC(C)C)C(=O)N[C@@H](CCCCN)C(=O)N[C@@H](CCC(N)=O)C(=O)N[C@@H](CCC(=O)O)C(=O)N[C@@H](CCCNC(=N)N)C(=O)N[C@@H](CCC(N)=O)C(=O)N[C@@H](CCCCN)C(=O)N[C@@H](CCCCN)C(=O)N[C@@H](CCC(N)=O)C(=O)N[C@@H](CCCNC(=N)N)C(=O)N[C@@H](CCC(N)=O)C(=O)N[C@@H](CCC(N)=O)C(=O)N[C@@H](C)C(=O)N[C@@H](CCC(=O)O)C(=O)N[C@@H](CCCCN)C(=O)N[C@@H](CC(N)=O)C(=O)N[C@@H](CCCCN)C(=O)N[C@@H](CCC(N)=O)C(=O)N[C@H](C(=O)N[C@@H](CC(C)C)C(=O)N[C@@H](C)C(=O)N[C@@H](CCC(N)=O)C(=O)N[C@H](C(N)=O)C(C)C)[C@@H](C)CC)[C@@H](C)CC)[C@@H](C)CC)C(C)C)C(C)C
For B2, the EC50 [nM], 0% HSA was found to be 0.03 nM and the EC50 [nM], 0.1% HSA turned out to be 1.31 nM.

B3: SEQ ID NO: 135 (peptide)
peptide: IVLSLD[dV]PIKLK([AEEA-AEEA-γGlu-C18 diacid])QILLKQERQK[Aib]QRQQAEKNKQILAQV-NH2
modifications: N-terminus assumed
SMILES: CC[C@H](C)[C@H](N)C(=O)N[C@H](C(=O)N[C@@H](CC(C)C)C(=O)N[C@@H](CO)C(=O)N[C@@H](CC(C)C)C(=O)N[C@@H](CC(=O)O)C(=O)N[C@@H](C(=O)N1CCC[C@H]1C(=O)N[C@H](C(=O)N[C@@H](CCCCN)C(=O)N[C@@H](CC(C)C)C(=O)N[C@@H](CCCCNC(=O)COCCOCCNC(=O)COCCOCCNC(=O)CC[C@H](NC(=O)CCCCCCCCCCCCCCCCC(=O)O)C(=O)O)C(=O)N[C@@H](CCC(N)=O)C(=O)N[C@H](C(=O)N[C@@H](CC(C)C)C(=O)N[C@@H](CC(C)C)C(=O)N[C@@H](CCCCN)C(=O)N[C@@H](CCC(N)=O)C(=O)N[C@@H](CCC(=O)O)C(=O)N[C@@H](CCCNC(=N)N)C(=O)N[C@@H](CCC(N)=O)C(=O)N[C@@H](CCCCN)C(=O)NC(C)(C)C(=O)N[C@@H](CCC(N)=O)C(=O)N[C@@H](CCCNC(=N)N)C(=O)N[C@@H](CCC(N)=O)C(=O)N[C@@H](CCC(N)=O)C(=O)N[C@@H](C)C(=O)N[C@@H](CCC(=O)O)C(=O)N[C@@H](CCCCN)C(=O)N[C@@H](CC(N)=O)C(=O)N[C@@H](CCCCN)C(=O)N[C@@H](CCC(N)=O)C(=O)N[C@H](C(=O)N[C@@H](CC(C)C)C(=O)N[C@@H](C)C(=O)N[C@@H](CCC(N)=O)C(=O)N[C@H](C(N)=O)C(C)C)[C@@H](C)CC)[C@@H](C)CC)[C@@H](C)CC)C(C)C)C(C)C
Molecule B3 displayed an EC50 [nM], 0% HSA of 0.04 nM and an EC50 [nM], 0.1% HSA of 1.48 nM.

B4: SEQ ID NO: 137 (peptide)
peptide: IVLSLD[dV]PIKLK([AEEA-AEEA-γGlu-C18 diacid])QILLKQERQKKQREQAEKNKQILEQV-NH2
modifications: N-terminus assumed
SMILES: CC[C@H](C)[C@H](N)C(=O)N[C@H](C(=O)N[C@@H](CC(C)C)C(=O)N[C@@H](CO)C(=O)N[C@@H](CC(C)C)C(=O)N[C@@H](CC(=O)O)C(=O)N[C@@H](C(=O)N1CCC[C@H]1C(=O)N[C@H](C(=O)N[C@@H](CCCCN)C(=O)N[C@@H](CC(C)C)C(=O)N[C@@H](CCCCNC(=O)COCCOCCNC(=O)COCCOCCNC(=O)CC[C@H](NC(=O)CCCCCCCCCCCCCCCCC(=O)O)C(=O)O)C(=O)N[C@@H](CCC(N)=O)C(=O)N[C@H](C(=O)N[C@@H](CC(C)C)C(=O)N[C@@H](CC(C)C)C(=O)N[C@@H](CCCCN)C(=O)N[C@@H](CCC(N)=O)C(=O)N[C@@H](CCC(=O)O)C(=O)N[C@@H](CCCNC(=N)N)C(=O)N[C@@H](CCC(N)=O)C(=O)N[C@@H](CCCCN)C(=O)N[C@@H](CCCCN)C(=O)N[C@@H](CCC(N)=O)C(=O)N[C@@H](CCCNC(=N)N)C(=O)N[C@@H](CCC(=O)O)C(=O)N[C@@H](CCC(N)=O)C(=O)N[C@@H](C)C(=O)N[C@@H](CCC(=O)O)C(=O)N[C@@H](CCCCN)C(=O)N[C@@H](CC(N)=O)C(=O)N[C@@H](CCCCN)C(=O)N[C@@H](CCC(N)=O)C(=O)N[C@H](C(=O)N[C@@H](CC(C)C)C(=O)N[C@@H](CCC(=O)O)C(=O)N[C@@H](CCC(N)=O)C(=O)N[C@H](C(N)=O)C(C)C)[C@@H](C)CC)[C@@H](C)CC)[C@@H](C)CC)C(C)C)C(C)C
Turning to B4, the EC50 [nM], 0% HSA was determined as 0.04 nM and the EC50 [nM], 0.1% HSA was found to be 1.78 nM.

B5: SEQ ID NO: 14 (peptide)
peptide: FTLSLDVPTKIK([γGlu-Palmitoyl])QKLLKQEKQRKQKQKAKTNAKILARV-NH2
modifications: N-terminus assumed
SMILES: CCCCCCCCCCCCCCCC(=O)N[C@@H](CCC(=O)NCCCC[C@H](NC(=O)[C@@H](NC(=O)[C@H](CCCCN)NC(=O)[C@@H](NC(=O)[C@@H]1CCCN1C(=O)[C@@H](NC(=O)[C@H](CC(=O)O)NC(=O)[C@H](CC(C)C)NC(=O)[C@H](CO)NC(=O)[C@H](CC(C)C)NC(=O)[C@@H](NC(=O)[C@@H](N)Cc1ccccc1)[C@@H](C)O)C(C)C)[C@@H](C)O)[C@@H](C)CC)C(=O)N[C@@H](CCC(N)=O)C(=O)N[C@@H](CCCCN)C(=O)N[C@@H](CC(C)C)C(=O)N[C@@H](CC(C)C)C(=O)N[C@@H](CCCCN)C(=O)N[C@@H](CCC(N)=O)C(=O)N[C@@H](CCC(=O)O)C(=O)N[C@@H](CCCCN)C(=O)N[C@@H](CCC(N)=O)C(=O)N[C@@H](CCCNC(=N)N)C(=O)N[C@@H](CCCCN)C(=O)N[C@@H](CCC(N)=O)C(=O)N[C@@H](CCCCN)C(=O)N[C@@H](CCC(N)=O)C(=O)N[C@@H](CCCCN)C(=O)N[C@@H](C)C(=O)N[C@@H](CCCCN)C(=O)N[C@H](C(=O)N[C@@H](CC(N)=O)C(=O)N[C@@H](C)C(=O)N[C@@H](CCCCN)C(=O)N[C@H](C(=O)N[C@@H](CC(C)C)C(=O)N[C@@H](C)C(=O)N[C@@H](CCCNC(=N)N)C(=O)N[C@H](C(N)=O)C(C)C)[C@@H](C)CC)[C@@H](C)O)C(=O)O
In turn, B5 showed an EC50 [nM], 0% HSA of 0.18 nM.

B6: SEQ ID NO: 138 (peptide)
peptide: IVLSLD[dV]PIKLK([AEEA-AEEA-γGlu-C18 diacid])QILLKQERQKKQREKAEKNKQILAQV-NH2
modifications: N-terminus assumed
SMILES: CC[C@H](C)[C@H](N)C(=O)N[C@H](C(=O)N[C@@H](CC(C)C)C(=O)N[C@@H](CO)C(=O)N[C@@H](CC(C)C)C(=O)N[C@@H](CC(=O)O)C(=O)N[C@@H](C(=O)N1CCC[C@H]1C(=O)N[C@H](C(=O)N[C@@H](CCCCN)C(=O)N[C@@H](CC(C)C)C(=O)N[C@@H](CCCCNC(=O)COCCOCCNC(=O)COCCOCCNC(=O)CC[C@H](NC(=O)CCCCCCCCCCCCCCCCC(=O)O)C(=O)O)C(=O)N[C@@H](CCC(N)=O)C(=O)N[C@H](C(=O)N[C@@H](CC(C)C)C(=O)N[C@@H](CC(C)C)C(=O)N[C@@H](CCCCN)C(=O)N[C@@H](CCC(N)=O)C(=O)N[C@@H](CCC(=O)O)C(=O)N[C@@H](CCCNC(=N)N)C(=O)N[C@@H](CCC(N)=O)C(=O)N[C@@H](CCCCN)C(=O)N[C@@H](CCCCN)C(=O)N[C@@H](CCC(N)=O)C(=O)N[C@@H](CCCNC(=N)N)C(=O)N[C@@H](CCC(=O)O)C(=O)N[C@@H](CCCCN)C(=O)N[C@@H](C)C(=O)N[C@@H](CCC(=O)O)C(=O)N[C@@H](CCCCN)C(=O)N[C@@H](CC(N)=O)C(=O)N[C@@H](CCCCN)C(=O)N[C@@H](CCC(N)=O)C(=O)N[C@H](C(=O)N[C@@H](CC(C)C)C(=O)N[C@@H](C)C(=O)N[C@@H](CCC(N)=O)C(=O)N[C@H](C(N)=O)C(C)C)[C@@H](C)CC)[C@@H](C)CC)[C@@H](C)CC)C(C)C)C(C)C
In turn, B6 yielded an EC50 [nM], 0% HSA of 0.06 nM and an EC50 [nM], 0.1% HSA of 3.12 nM.

For the origin of these results see patent US12679878B2, “CRF2 receptor agonists and their use in therapy” (SANOFI, priority 2020, dated 2026).
